From paper PMC3910116, “Super Spy variants implicate flexibility in chaperone action” (eLife, 2014)
Positions count from the first letter of the chain named. Names may count otherwise.

Legend:
Settings in all cases: both partners purified
Spy F115L [1] = target: T1, Spy F115L (E. coli, UniProt P77754 24-161, F115L); experiment: BLI; biotinylated Im7 L53A I54A immobilised on streptavidin sensors (Octet RED); Spy variants at 2, 1, 0.5, 0.25 and 0.125 µM; 25°C; 40 mM HEPES, 150 mM NaCl, pH 7.5; 1:1 binding model, KD = koff/kon; apparent
T1 construct: N-terminal serine from the Sumo fusion construct; the footnote says it of Spy purification in general; Spy, E. coli, mature protein; numbers count on: the mature protein; Variant of m1 found by genetic selection, remade by site-directed mutagenesis; also called super-Spy variant; source: purified; not shown: SUMO, N-terminal, cleaved (from the N-terminal serine said of Spy purification in general)
T1 sequence: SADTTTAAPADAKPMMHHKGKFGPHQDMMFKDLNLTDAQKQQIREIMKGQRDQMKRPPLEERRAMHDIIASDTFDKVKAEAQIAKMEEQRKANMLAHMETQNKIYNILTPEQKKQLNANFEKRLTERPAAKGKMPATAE

Spy H96L [2] = target: T2, Spy H96L (E. coli, UniProt P77754 24-161, H96L); experiment: as above
T2 construct: N-terminal serine from the Sumo fusion construct; the footnote says it of Spy purification in general; Spy, E. coli, mature protein; numbers count on: the mature protein; Variant of m1 found by genetic selection, remade by site-directed mutagenesis; also called super-Spy variant; source: purified; not shown: SUMO, N-terminal, cleaved (from the N-terminal serine said of Spy purification in general)
T2 sequence: T1 sequence with H97L, L116F

Spy L32P [3] = target: T3, Spy L32P (E. coli, UniProt P77754 24-161, L32P); experiment: as above
T3 construct: N-terminal serine from the Sumo fusion construct; the footnote says it of Spy purification in general; Spy, E. coli, mature protein; numbers count on: the mature protein; Variant of m1 found by genetic selection, remade by site-directed mutagenesis; also called super-Spy variant; source: purified; not shown: SUMO, N-terminal, cleaved (from the N-terminal serine said of Spy purification in general)
T3 sequence: T1 sequence with L33P, L116F

Spy (wild type) [4] = target: T4, Spy (wild type) (E. coli, UniProt P77754 24-161); experiment: as above
T4 construct: N-terminal serine introduced from the Sumo fusion construct used for purification; numbers count on: the mature protein; construct as in Quan et al., 2011; also called WT; wild-type Spy; source: purified from a Sumo fusion construct (Quan et al., 2011); not shown: SUMO, N-terminal, cleaved (from the N-terminal serine left on the protein)
T4 sequence: T1 sequence with L116F

Spy Q49L [5] = target: T5, Spy Q49L (E. coli, UniProt P77754 24-161, Q49L); experiment: as above
T5 construct: N-terminal serine from the Sumo fusion construct; the footnote says it of Spy purification in general; Spy, E. coli, mature protein; numbers count on: the mature protein; Variant of m1 found by genetic selection, remade by site-directed mutagenesis; also called super-Spy variant; source: purified; not shown: SUMO, N-terminal, cleaved (from the N-terminal serine said of Spy purification in general)
T5 sequence: T1 sequence with Q50L, L116F

Spy F115I [6] = target: T6, Spy F115I (E. coli, UniProt P77754 24-161, F115I); experiment: as above
T6 construct: N-terminal serine from the Sumo fusion construct; the footnote says it of Spy purification in general; Spy, E. coli, mature protein; numbers count on: the mature protein; Variant of m1 found by genetic selection, remade by site-directed mutagenesis; also called super-Spy variant; source: purified; not shown: SUMO, N-terminal, cleaved (from the N-terminal serine said of Spy purification in general)
T6 sequence: T1 sequence with L116I

Spy Q25R [7] = target: T7, Spy Q25R (E. coli, UniProt P77754 24-161, Q25R); experiment: as above
T7 construct: N-terminal serine from the Sumo fusion construct; the footnote says it of Spy purification in general; Spy, E. coli, mature protein; numbers count on: the mature protein; Variant of m1 found by genetic selection, remade by site-directed mutagenesis; also called super-Spy variant; source: purified; not shown: SUMO, N-terminal, cleaved (from the N-terminal serine said of Spy purification in general)
T7 sequence: T1 sequence with Q26R, L116F

Spy Q100L [8] = target: T8, Spy Q100L (E. coli, UniProt P77754 24-161, Q100L); experiment: as above
T8 construct: N-terminal serine from the Sumo fusion construct; the footnote says it of Spy purification in general; Spy, E. coli, mature protein; numbers count on: the mature protein; Variant of m1 found by genetic selection, remade by site-directed mutagenesis; also called super-Spy variant; source: purified; not shown: SUMO, N-terminal, cleaved (from the N-terminal serine said of Spy purification in general)
T8 sequence: T1 sequence with Q101L, L116F

Spy (wild type) [9] = target: T4, Spy (wild type); experiment: ITC; Spy with full length Im7 L53A I54A or purified Im7 peptides; conditions and who was titrated not told
Spy F115L [10] = target: T1, Spy F115L; experiment: HDX-MS; top-down ECD-FTICR-MS; 25 µM Spy (dimer) and 100 µM Im7 peptide (1:4), 10 mM ammonium acetate, 80% D2O, labelling time 10 s
Spy H96L [11] = target: T2, Spy H96L; experiment: as above
Spy L32P [12] = target: T3, Spy L32P; experiment: as above
Spy Q49L [13] = target: T5, Spy Q49L; experiment: as above
Spy F115I [14] = target: T6, Spy F115I; experiment: as above
Spy Q25R [15] = target: T7, Spy Q25R; experiment: as above
Spy Q100L [16] = target: T8, Spy Q100L; experiment: as above
[17] = target: T9, N-terminal strep-tagged Spy (E. coli, UniProt P77754 24-161); experiment: pull-down; tryptic fragments of Im7 L53A I54A mixed with N-terminal strep-tagged Spy, strep-tactin sepharose column, eluted with 2.5 mM desthiobiotin, fragments identified by LC/MS
T9 construct: Spy, E. coli; Probably the mature protein behind the tag; not shown: Strep tag, N-terminal, kept
T9 sequence (looked up): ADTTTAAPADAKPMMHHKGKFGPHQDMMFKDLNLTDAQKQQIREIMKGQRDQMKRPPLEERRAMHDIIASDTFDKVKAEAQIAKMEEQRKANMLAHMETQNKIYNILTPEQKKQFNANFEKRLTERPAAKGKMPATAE

B1: Biotinylated Im7 L53A I54A (natural protein)
chain: SMELKNSISDYTEAEFVQLLKEIEKENVAATDDVLDVLLEHFVKITEHPDGTDAAYYPSDNRDDSPEGIVKEIKEWRAANGKPGFKQG
modifications: biotin (EZ-link NHS-biotin at 1:1 molar ratio; site not stated)
notes: N-terminal serine from the Sumo fusion construct; the footnote says it of Im7 purification in general; immunity protein 7 (Im7), colicin E7 immunity protein; Same protein as m10 with biotin; held on streptavidin sensors; also called biotin-conjugated Im7 L53A I54A; immunity protein 7 L53A I54A; source: purified from a Sumo fusion construct (Quan et al., 2011), biotinylated with EZ-link …
Kd (Spy F115L [1]): 900 nM | koff (Spy F115L [1]): 0.245 s⁻¹ | Kd (Spy H96L [2]): 1000 nM | koff (Spy H96L [2]): 0.266 s⁻¹ | Kd (Spy L32P [3]): 200 nM | koff (Spy L32P [3]): 0.03 s⁻¹ | Kd (Spy (wild type) [4]): 1150 nM | koff (Spy (wild type) [4]): 0.456 s⁻¹ | Kd (Spy Q49L [5]): 760 nM | koff (Spy Q49L [5]): 0.176 s⁻¹ | Kd (Spy F115I [6]): 1170 nM | koff (Spy F115I [6]): 0.328 s⁻¹ | Kd (Spy Q25R [7]): 870 nM | koff (Spy Q25R [7]): 0.198 s⁻¹ | Kd (Spy Q100L [8]): 230 nM | koff (Spy Q100L [8]): 0.027 s⁻¹

B2: Im7 12-45 peptide (peptide)
chain: SEAEFVQLLKEIEKENVAATDDVLDVLLEHFVKIT
notes: N-terminal serine from the Sumo fusion construct; the footnote says it of Im7 purification in general; immunity protein 7 (Im7), residues 12-45; source: expressed in vivo, purified; not shown: SUMO, N-terminal, cleaved (from the N-terminal serine said of Im7 purification in general)
Kd (Spy (wild type) [9]): 8000 nM

B3: Im7 3-45 peptide (peptide)
chain: SLKNSISDYTEAEFVQLLKEIEKENVAATDDVLDVLLEHFVKIT
notes: N-terminal serine from the Sumo fusion construct; the footnote says it of Im7 purification in general; immunity protein 7 (Im7), residues 3-45; source: expressed in vivo, purified; not shown: SUMO, N-terminal, cleaved (from the N-terminal serine said of Im7 purification in general)
Kd (Spy (wild type) [9]): 2300 nM

B4: Im7 L53A I54A (natural protein)
chain: B1 chain
notes: N-terminal serine from the Sumo fusion construct; the footnote says it of Im7 purification in general; immunity protein 7 (Im7), colicin E7 immunity protein; also called full length Im7 L53A I54A; immunity protein 7 L53A I54A; source: purified from a Sumo fusion construct (Quan et al., 2011); not shown: SUMO, N-terminal, cleaved (from the N-terminal serine said of Im7 purification in general)
Kd (Spy (wild type) [9]): 2500 nM

B5: Im7 7-45 peptide (peptide)
chain: SISDYTEAEFVQLLKEIEKENVAATDDVLDVLLEHFVKIT
notes: N-terminal serine introduced from the Sumo fusion construct; immunity protein 7 (Im7), residues 7-45; Called a 40-amino acid peptide: 39 residues of Im7 and the N-terminal serine; An equimolar mixture of unlabelled and 15N-labelled peptide was used for PICUP and EDC; also called Im7 L53A I54A 7-45 peptide; source: expressed in vivo as a Sumo fusion construct, purified; not shown: SUMO, …
Kd (Spy (wild type) [9]): 2600 nM | binding result (Spy F115L [10]): binds | binding result (Spy H96L [11]): binds | binding result (Spy L32P [12]): binds | binding result (Spy Q49L [13]): binds | binding result (Spy F115I [14]): binds | binding result (Spy Q25R [15]): binds | binding result (Spy Q100L [16]): binds

B6: Im7 L53A I54A tryptic fragment 5–70 (domain or fragment, UniProt Q03708 5-70, looked up)
chain: NSISDYTEAEFVQLLKEIEKENVAATDDVLDVLLEHFVKITEHPDGTDAAYYPSDNRDDSPEGIVK
notes: immunity protein 7 (Im7), residues 5-70; source: limited proteolysis of Im7 L53A I54A with trypsin
binding result [17]: binds

B7: Im7 L53A I54A tryptic fragment 5–76 (domain or fragment, UniProt Q03708 5-76, looked up)
chain: NSISDYTEAEFVQLLKEIEKENVAATDDVLDVLLEHFVKITEHPDGTDAAYYPSDNRDDSPEGIVKEIKEWR
notes: immunity protein 7 (Im7), residues 5-76; source: limited proteolysis of Im7 L53A I54A with trypsin
binding result [17]: binds

B8: Im7 L53A I54A tryptic fragment 5–43 (peptide, UniProt Q03708 5-43, looked up)
chain: NSISDYTEAEFVQLLKEIEKENVAATDDVLDVLLEHFVK
notes: immunity protein 7 (Im7), residues 5-43; most of the α1 and α2 helices; source: limited proteolysis of Im7 L53A I54A with trypsin
binding result [17]: binds

B9: Im7 L53A I54A tryptic fragment 5–73 (domain or fragment, UniProt Q03708 5-73, looked up)
chain: NSISDYTEAEFVQLLKEIEKENVAATDDVLDVLLEHFVKITEHPDGTDAAYYPSDNRDDSPEGIVKEIK
notes: immunity protein 7 (Im7), residues 5-73; source: limited proteolysis of Im7 L53A I54A with trypsin
binding result [17]: binds
